Measurements from patent US20240197897A1, “HETEROTANDEM BICYCLIC PEPTIDE COMPLEXES” (Bicycle Tx Limited, priority 2021, published 2024).
Each block holds one molecule with its values, some of them ahead of it. Starred links: 1 amine or outer side, 2 acyl side, 3 side chain; linkers in the order of their positions; H or OH if unused. Positions of bridges follow the written chain, without caps; N, C: chain ends. Non-standard residues stand in square brackets, D forms with d. Chains are numbered I, II in the order given. No end group written: not given here. *: point of attachment. TBMT = 2,4,6-tris(bromomethyl)-s-triazine, molecular scaffold, C(c1nc(C[*:2])nc(C[*:3])n1)[*:1]; TATA = O=C(CC[*:1])N1CN(C(=O)CC[*:2])CN(C(=O)CC[*:3])C1; Hyp = O=C(O)[C@@H]1C[C@@H](O)CN1; hArg = N=C(N)NCCCC[C@H](N)C(=O)O; Cba = N[C@@H](CC1CCC1)C(=O)O; Pent4ynoyl = C#CCCC(=O)*

Experiments:
HT1080-luc cells = test: NK cytotoxicity assay (NK:HT1080-luc co-culture, luciferase readout); type: cell-based, human; details: in comparison to NK:HT1080-luc co-culture without heterotandem complex (NK-TICA)
Method: (§1) Heterotandem bicyclic peptide complexes were evaluated for NK functional readouts (cytotoxicity and cytokine secretion) in NK-tumor cell line co-cultures.
(§2) NK cells were isolated using a negative isolation kit (STEMCELL™ Technologies 17955) from the total PBMC population purified from whole blood. NK cell pellet was then resuspended in DMEM medium (Corning™ 10-013-CV) with 10% heat-inactivated fetal bovine serum (FBS; Corning® 35-011-CV), 10 mM HEPES (Gibco™ 15-630-080), and 1% Penicillin Streptomycin (Corning™ 30-002-CI), and 50 IU/mL human IL-2 (Miltenyi Biotec® 130-097-748), at a concentration of 4×10^5 cells/mL. For the NK cell cytotoxicity assays, 50 μL (2×10^4) of cell suspension was plated in the 96-well plate (Grenier® Bio One™ 655090) containing 50 μl (4×10^3) HT1080-luc cells (ATCC® CCL-121-luc2) in DMEM (Gibco™ 11875-093; with L-glutamine) with 10% heat-inactivated fetal bovine serum (FBS; Corning® 35-011-CV), 10 mM HEPES (Gibco™ 15-630-080), and 1% Penicillin Streptomycin (Corning™ 30-002-CI). […] The plates were then incubated for 24 hours at 37° C., 5% CO2. Post-incubation, plates was centrifuged at 250×g for 5 minutes and 100 μl supernatant discarded. Samples were then incubated 10 minutes with 50 μl Bright-Glo™ Luciferase Assay system (Promega™ E2620). Luminescence upon excitation at 570 nm was read using a CLARIOstar® plate-reader with MARS Data Analysis Software™. Data was fit to a four-parameter non-linear regression in GraphPad Prism™ 8.0.2 to generate an EC50 value.

[1] = as above; type: cell-based, human; details: NK:HT1080-luc co-culture, 24 hours, four-parameter logistic regression; FIGS. 2-4, 6-8, 10; read-out: EC50 NK cytotoxicity (tumor cell killing)
Method: as §1, §2

NK cells = test: Degranulation assay (CD107a surface expression on NK cells co-cultured with A549); type: cell-based, human; details: for upregulation of CD107a on NK cell surface: NK cells with A549 cells, post-treatment, FIG. 1
Method: Tumor cells can be recognized and killed by CD8+T-cytotoxic and NK cells through the immune secretion of lytic granules that kill target cells. This process involves the fusion of the granule membrane with the cytoplasmic membrane of the immune effector cell, resulting in surface exposure of CD107a (LAMP1). Membrane expression of CD107a constitutes a marker of immune cell activation and cytotoxic degranulation. EphA2/NKp46 or EphA2/CD16a heterotandem bicyclic peptide complexes were evaluated for activation of NK cells using a degranulation assay.
On the day of the experiment, medium was prepared by supplementing RPMI-1640 (Gibco™ 11875-093; with L-glutamine) with 10% heat-inactivated fetal bovine serum (FBS; Corning® 35-011-CV), 10 mM HEPES (Gibco™ 15-630-080), and 1% Penicillin Streptomycin (Corning™ 30-002-CI), herein referred to as working medium. Previously isolated human peripheral blood mononuclear cells (PBMCs), from whole blood, were quick thawed in a water bath and washed once at 500 rpm for 5 minutes in 10 mL of prewarmed working medium. PBMC pellet was then resuspended to concentration of 5×10^6 cells/mL in working medium and rested overnight (12-18 hours) horizontally in a tissue-culture coated flask (T-183; CELLTREAT Scientific 229351). Moreover, Ephrin type-A receptor (EphA2) expressing human lung carcinoma cell line A549 (ATCCR CCL-185; cells were grown and maintained according to manufacturer's recommendation) were detached from the culture vessel using Trypsin/EDTA and washed once at 500 rpm for 5 minutes in 15 mL of prewarmed working medium. Cell pellet was then resuspended in working medium at a concentration of 1×10^5 cells/mL. Subsequently, 100 μL of cell suspension was plated in a flat-bottom tissue-culture coated 96-well plate (Greiner CellStar® 655180) and rested overnight (12-18 hours).
Post-overnight incubation, PBMCs were removed from the flask and washed once at 500 rpm for 5 minutes in 10 mL of prewarmed working medium. […]

[2] = target: EPH receptor A2 (ephrin type-A receptor 2) (human) (UniProt P29317); test: cell-based or functional assay
Chain of EPH receptor A2 (ephrin type-A receptor 2) (human) (P29317 24-976): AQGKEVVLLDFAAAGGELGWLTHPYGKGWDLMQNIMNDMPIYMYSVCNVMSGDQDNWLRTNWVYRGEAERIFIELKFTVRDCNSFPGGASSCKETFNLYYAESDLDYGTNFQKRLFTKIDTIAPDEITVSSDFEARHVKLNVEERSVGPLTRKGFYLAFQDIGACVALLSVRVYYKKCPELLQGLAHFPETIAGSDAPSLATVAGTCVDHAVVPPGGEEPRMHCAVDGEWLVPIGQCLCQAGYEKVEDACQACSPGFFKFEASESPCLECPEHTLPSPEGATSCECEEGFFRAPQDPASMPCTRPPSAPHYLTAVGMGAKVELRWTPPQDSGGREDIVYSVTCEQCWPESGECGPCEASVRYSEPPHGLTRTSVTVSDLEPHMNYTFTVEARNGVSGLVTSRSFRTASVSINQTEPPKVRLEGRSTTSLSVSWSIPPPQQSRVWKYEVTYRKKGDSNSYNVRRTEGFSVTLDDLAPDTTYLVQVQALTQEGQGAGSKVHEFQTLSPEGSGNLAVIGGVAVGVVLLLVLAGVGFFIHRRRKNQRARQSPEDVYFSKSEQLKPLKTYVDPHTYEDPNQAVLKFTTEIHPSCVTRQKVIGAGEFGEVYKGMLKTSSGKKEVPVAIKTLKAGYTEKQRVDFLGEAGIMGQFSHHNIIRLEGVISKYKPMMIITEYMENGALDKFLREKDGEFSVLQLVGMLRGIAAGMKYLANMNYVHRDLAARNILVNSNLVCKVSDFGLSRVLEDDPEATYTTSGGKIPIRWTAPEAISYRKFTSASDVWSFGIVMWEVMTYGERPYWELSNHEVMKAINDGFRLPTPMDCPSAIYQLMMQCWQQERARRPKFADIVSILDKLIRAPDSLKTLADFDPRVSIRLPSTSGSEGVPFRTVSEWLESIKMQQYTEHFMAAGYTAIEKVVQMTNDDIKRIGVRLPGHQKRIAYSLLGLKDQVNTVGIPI

NKp46 (human) = NKp46 (human) (UniProt O76036); test: cell-based or functional assay
Chain of NKp46 (human) (O76036 22-304): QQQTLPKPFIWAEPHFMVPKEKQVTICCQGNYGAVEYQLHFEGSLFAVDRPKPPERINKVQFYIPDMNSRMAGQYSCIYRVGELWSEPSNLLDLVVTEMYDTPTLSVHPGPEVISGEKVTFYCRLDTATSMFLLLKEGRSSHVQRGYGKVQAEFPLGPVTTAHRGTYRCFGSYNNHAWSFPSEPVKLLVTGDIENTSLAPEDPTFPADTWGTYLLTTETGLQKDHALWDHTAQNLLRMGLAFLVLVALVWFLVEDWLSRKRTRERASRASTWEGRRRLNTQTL

[3] = target: FcγRIIIA (also known as CD16a) (human) (UniProt P08637); test: cell-based or functional assay
Chain of FcγRIIIA (also known as CD16a) (human) (P08637 17-254): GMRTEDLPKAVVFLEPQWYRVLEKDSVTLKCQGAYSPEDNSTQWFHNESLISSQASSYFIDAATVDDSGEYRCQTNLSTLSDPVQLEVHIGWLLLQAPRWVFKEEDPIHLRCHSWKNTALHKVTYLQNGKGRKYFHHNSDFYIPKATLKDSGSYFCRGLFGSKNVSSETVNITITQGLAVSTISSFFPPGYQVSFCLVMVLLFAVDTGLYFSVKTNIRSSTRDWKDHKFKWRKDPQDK

Molecule: CC(C)C[C@@H]1NC(=O)[C@H](Cc2ccc(O)cc2)NC(=O)[C@H](CC(=O)O)NC(=O)[C@@H]2CCCN2C(=O)[C@H](CC(C)C)NC(=O)[C@H](Cc2ccc(O)cc2)NC(=O)[C@@H](NC(=O)[C@H](C)N)CSCCC(=O)N2CN3CN(C2)C(=O)CCSC[C@@H](C(=O)N[C@@H](C)C(=O)N[C@H](CCCCNC(=O)CCc2cn(CCOCCOCCOCCN(CCOCCOCCOCCC(=O)N[C@@H](C)C(=O)N[C@@H](CCCCNC(=N)N)C(=O)N[C@@H](CC(=O)O)C(=O)N[C@H]4CSCCC(=O)N5CN6CN(C5)C(=O)CCSC[C@H](NC(=O)[C@H](CC(C)C)NC(=O)[C@@H]5CCCN5C(=O)[C@H](CC(N)=O)NC(=O)[C@H](C(C)C)NC(=O)[C@H](CC(C)C)NC(=O)[C@@H]5C[C@@H](O)CN5C4=O)C(=O)N[C@@H](CC(C)C)C(=O)N[C@@H](Cc4c[nH]cn4)C(=O)N4CCC[C@H]4C(=O)N[C@H](CC(=O)O)C(=O)N[C@@H](Cc4c[nH]c5ccccc45)C(=O)N[C@@H](CCCCNC(=N)N)C(=O)N[C@H](C(N)=O)CSCCC6=O)CCOCCOCCOCCn4cc(CCC(=O)NCCCC[C@@H](NC(=O)[C@H](C)NC(=O)[C@@H]5CSCCC(=O)N6CN7CN(C6)C(=O)CCSC[C@H](NC(=O)[C@H](CC(C)C)NC(=O)[C@H](Cc6ccc(O)cc6)NC(=O)[C@H](CC(=O)O)NC(=O)[C@@H]6CCCN6C(=O)[C@H](CC(C)C)NC(=O)[C@H](Cc6ccc(O)cc6)NC(=O)[C@@H](NC(=O)[C@H](C)N)CSCCC7=O)C(=O)NCC(=O)N[C@@H](CC(=O)O)C(=O)N[C@@H](CCC(=O)O)C(=O)N[C@@H](Cc6ccc(O)cc6)C(=O)N5)C(N)=O)nn4)nn2)C(N)=O)NC(=O)[C@H](Cc2ccc(O)cc2)NC(=O)[C@H](CCC(=O)O)NC(=O)[C@H](CC(=O)O)NC(=O)CNC(=O)[C@H](CSCCC3=O)NC1=O [BCY15664]
effect on tumor cell killing by NK cells, in words (HT1080-luc cells): dose-dependent NK cell response to kill
EC50 [1]: 0.021 nM
upregulation of CD107a on NK cell surface (NK cells): dose-dependent upregulation of CD107a

Molecule: BCY15911: EphA2 specific peptide BCY9594 linked to two CD16a specific peptides (BCY13886) via N-(acid-PEG3)-N-bis(PEG3-azide) linker (peptide 1 A[hArg]DC[Hyp]LVNPLCLHP[dD]W[hArg]C; peptide 2 ACVGLEELGPCSDLCAK(Pent4ynoyl); linker I:4-I:11-I:18 via TATA; linker II:2-II:11-II:15 via TBMT; also: chain 1 N-terminus and chain 2 K(PYA) joined through N-(acid-PEG3)-N-bis(PEG3-azide) linker, two copies of chain 2)
upregulation of CD107a on NK cell surface (NK cells): dose-dependent upregulation of CD107a
EC50 (NK cells; NK cells with EphA2 expressing A549 cells, 4 hours, flow cytometry, read-out: EC50 Degranulation Geometric Mean CD107a): 99.8 nM

B1: heterotandem bicyclic peptide complex BCY15923 (peptide)
peptide 1: A[hArg]DC[Hyp]LVNPLCLHP[dD]W[hArg]C
peptide 2: ACDLTTHNCQWGICAK(Pent4ynoyl)
modifications: linker I:4-I:11-I:18, II:2-II:9-II:14 via TATA; also: EphA2:NKp46 1:2, two copies of chain 2 on the linker, X5, X17: HyP or HArg, linker at chain B 16 to a chain's N-terminus via N-(acid-PEG3)-N-bis(PEG3-azide) linker
EC50, NK cytotoxicity assay (HT1080-luc luminescence) [2]: 0.044 nM
EC50, NK cytotoxicity assay (HT1080-luc luminescence) (NKp46 (human)): 0.044 nM

EC50 Degranulation Geometric Mean CD107a [2]: 99.8 nM
EC50 Degranulation Geometric Mean CD107a [3]: 99.8 nM
B2: heterotandem bicyclic peptide complex BCY15911 (peptide)
peptide 1: A[hArg]DC[Hyp]LVNPLCLHP[dD]W[hArg]C
peptide 2: ACVGLEELGPCSDLCAK(Pent4ynoyl)
modifications: linker I:4-I:11-I:18 via TATA; linker II:2-II:11-II:15 via TBMT; also: EphA2:CD16a 1:2, two copies of chain 2 on the linker, X5, X17: HyP or HArg, linker at chain B 17 to a chain's N-terminus via N-(acid-PEG3)-N-bis(PEG3-azide) linker

B3: heterotandem bicyclic peptide complex BCY20793 (peptide)
peptide 1: A[hArg]DC[Hyp]LVNPLCLHP[dD]W[hArg]C
peptide 2: Ac-CY[Cba]PDYLC[dA]DEYCK(Pent4ynoyl)
peptide 3: ACRWHFSEPCGAWCAK(Pent4ynoyl)
modifications: linker I:4-I:11-I:18, II:1-II:8-II:13 via TATA; linker III:2-III:10-III:14 via TBMT; also: three peptides joined on N-(PEG3-acid)-N-(PEG3-azide)-N-(PEG3-NH-AcAz) linker (triazole to PYA of chains 2 and 3)
EC50, NK cytotoxicity assay (HT1080-luc luminescence) [3]: 0.0065 nM
EC50, NK cytotoxicity assay (HT1080-luc luminescence) (NKp46 (human)): 0.0065 nM
